Data from the DeepSol protein solubility set.

Test: soluble on expression in E. coli; label from the status in PepcDB or PDB records

| Sequence | soluble on expression in E. coli |
| --- | --- |
| MPADRYATGNGFTGIIRTRHQTFKRHRSAHRRNGQNPIGLPARSRWQPAGNQQLLIFRRLMQNKKQPAQAVFLAASLTPTAAPSSLPVGKR | not soluble |
| RVKGTFNKYSQLRSMSGMNGAQVAQRVLQAAGIYDVQVRHVSGSLTDHYDPRTKTVNLSDPVYNATSVAALGVAAHECGHAIQHAKSYAPLSIRS | not soluble |
| MSLAKILVIDDESTILQNIKFLLEIDGNEVLTASSSTEGLRIFTENCNSIDVVITDMKMPKLSGMDILREIKKITPHMAVIILTGHGDLDNAILAMKEGAFEYLRKPVTAQDLSIAINNAINRKKLLMENERMTQELLAHRNYLQGLHDSAAKILLNMLPKNLPDIEGFNFAVDYKSCDGVGGDMYDVCDIGDYICFYVFDVSHHGILAAVISIIIKSFLQNIEYNYRQGINKRRFPEIVLDLNLELLSNTAQNVFASLFLGFIDKNSKKLYTVSAGHIPQYIMKENGLVPLESTGPILGVFEDSTYKCAVNQLEPGDKVLLFTDGIIESPSDSSDESSDGNQIFGYENMVKVLESCKNEPISTTIDKIMKAVKDFSGNRCTDDMTILGVEVLKENEGHHHHHH | soluble |
| MAHHHHHHSLIDCRYYQQNECRSCQWLEIPCSQQLTEKQYHLKQQLISINYDEAQWVAPFQSNQQGFRNKAKMVVSGSVERPILGILKNPNDPQSAIDLCDCPLYPTHFSAIFSILKDFIGRAGLVPYNIAKQKGELKYILLTESIATEKLMLRFVLRTENKLPLIRRELPKLLEKLPHLEVISINLQPQHAAILEGEQEIFLTEQQFLPENFNGIPLFIRPRGFFQTNPKVAAGLYATAQQWVAEFPIYNLWDLFCGVGGFGLHCAKALQEKWGKPIKLTGIEISSSAILAASHSAKILGLEHVNFQSLDAASVIENKNENKPDLVIVNPPRRGIGKELSEFLNQIQPHFILYSSCNAMTMGKDLQHLTCYKPLKIQLFDMFPQTSHYEVLVLLEREG | not soluble |
| MRDSLNNGVSLQQAQETYFAKFNHYSYMAHFVAKILGQRPSHVLSGWGVSELIVAYGHYANEQSYQNFMDWKSSQENAPKPKQPQPFVVQFISQDELEEVE | not soluble |
| MGSDKIHHHHHHMAELIFSRETDCRYCYKCLRNCPVKAISFKSGKSTVLEEECVFCGSCLDICPQNARSYRKDVERFLSLSEPFLVSIAPSFFAYFENPLKVIGVLKEMGAVVVQETAVGAEIVSRRYEEVFEKHSGPFITTACPVVVNLAEKHFPNVLKYFAPVDSPLMTHAKFLKTRYGDFPIVFVGPCIAKKSESDLVDVALTFEELEEILEEREGKEALPDGPYPDRARFYPTTDGIGYTVSVPWEKKLVVEGVENLMRVFSRIDEYKSVFIEASACYGSCLNGPVMKKKSNGKERLLEWQKKLPKEPK | not soluble |
| MILLIDNYDSFVFNVKSMLEQLSNDEILVRRNDAISLSEIKNLNPTHIILSPGPKHPSQSGICLEIFKARLNIPVLGICLGHQALALAFDSLVVKMQEPMHAKNSLIKQCRENELFSNLPSNFSVMRYHSLEVKQLSDELEILALDEKGVIMALGHKNLPYYGVQFHPESYFSEYGLQLFSNFLKQDIKKPQKQENPLSFYLQKMSENHFLQSDDFEQICKIIMSKDYEILQVVALLILITEKSLNEKSLSAFVRQILRYSQTFSDESEMIDICGTGGDGFKSINVSTTSAFILAALGVKVAKHGNRAISSSSGSTDVLEALNITTPNTLESVLKQLNNQGLSFLHAPFFHPLVGELKEIRSRLGVRTVFNVLGPLLHPNLKLKYQLMGNYHAPVHRLLIEVLKNLGRKKALVVRGNDGMDELSICDESKIYELCEGEILEYSICPEQFGFKRAFHSEIIGSSAYDNAKDLKDILSGRMQGAKFDLVVLNAMFALYTANKASSPLVAKDMILEAIYSGKVIEYFKEYQAYAKA | not soluble |
| MSLNYTTQMDAAKKGIITKEMQVVSEKEGINIETLMNLMAEGKIVIPANKNHKSISAEGVGQGLRTKINVNLGISKDCANIELELEKVKKAIDMNAESIMDLSNYGKTYDFRKRLVEVSTAMIGTVPMYDVVGFYDKELKDITVDEFFEVVEKHAKDGVDFVTIHAGLNRETIETFRRNKRLTNIVSRGGSLLFAWMELNNRENPFYEYFDRLLDICEKYDLTLSLGDACRPGSIADATDAVQIKELITLGELTKRAWERNVQVIIEGPGHMAMNEIEANVLLEKKLCHGAPFYVLGPIVTDIAPGYDHITSAIGGAMAASYGADFLCYVTPAEHLRLPNLEDVREGIVATKIAAHAADIAKGISGARDIDNKMSDARKRLDWDEMFSLAIDSEKAIRYRKESTPEHKDSCTMCGKMCSIRNMNKILEGKDINLLREGHHHHHH | soluble |
| MGSDKIHHHHHHMIGHVPVGSSAPVVVQSMTNTDTADAAATVRQVYELWRAGSEIVRITVNSPEAAAQVGAIRRQLDDLGCNVPLVGDFHFNGHRLLAQYPDCAEALAKYRINPGNVGKGSKRDEQFSAMIKAAIDYNKPVRIGVNWGSLDQAKMARMMDENSKRAAPLAADALMREMLIQSALENAAAAEELGLPSDRIIISCKVSAVQDLIKVYRDLGSRCDYPLHLGLTEAGMGSKGIVASTAALSVLLQDGIGDTIRVSLTPEPGESRTKEVVVAQEILQTMGIRSFTPLVTACPGCGRTTSTFFQELAQKIQHYLRDQMPVWRSQYPGVENMSVAVMGCVVNGPGESKLANIGISLPGTGEVPVAPVYVDGEKTVTLKGERIADDFKVIVEEYVRVNYAEGGRLRQQGTGTGLKTIPLKAI | not soluble |
| MGSDKIHHHHHHMMSEEKILSVDFTQEDAYTEILPRSPLVSSYHAQWQGLRLDVHQQPGHETPEHSPQQHVLTVSLEQQIVRSERILDGRLQYENIAKGDVAIIPAQTRHISRWQSEAKFLVLSMEPAFFTRMVIEAGDLQKIEIKPRFAAPDPLIQQIGLALQTELESEHKGSSIYIESLTTTLCIHLLKHYCVTGGTILDDHHHKGLSHWKLRQAISYIHENLDQDLTLVDISTAVGMSMYYFSRQFKQSTGFAPHQYVMNCRIERAKKLLGSTNKTIEQICTQVGFQSQSHFTNVFRKLMGITPRVYREQVKT | not soluble |
| MGSDKIHHHHHHMIRLGLTSFSEHDYLTGKKRSTLYEYASHLPLVEMDTAYYGIPPKERVAEWVKAVPENFRFVMKVYSGISCQGEWQTYYASEEEMITAFLESMAPLIESKKLFAFLVQFSGTFGCTKENVAYLQKIRHWFKDLPIAIELRNNSWYQPNFVKQMLQFMKENQFSLVIVDEPQIPTNPVPFYPYVTNPNLVLFRFHGRNAAGWLANDAEWRKKRTLYHYNTQEIADLSEAVLKMSQEAKEVGVIFNNNSGGDAAENALQMQKVLNLSYDDLNPKQLDLF | soluble |
| MRVLIVKTSSMGDVLHTLPALTDAQQAIPGIKFDWVVEEGFAQIPSWHAAVERVIPVAIRRWRKAWFSAPIKAERKAFREALQAKNYDAVIDAQGLVKSAALVTRLAHGVKHGMDWQTAREPLASLFYNRKHHIAKQQHAVERTRELFAKSLGYSKPQTQGDYAIAQHFLTNLPTDAGEYAVFLHATTRDDKHWPEEHWRELIGLLADSGIRIKLPWGAPHEEERAKRLAEGFAYVEVLPKMSLEGVARVLAGAKFVVSVDTGLSHLTAALDRPNITVYGPTDPGLIGGYGKNQMVCRAPGNELSQLTANAVKQFIEENAEKAAMI | soluble |
| MSESQLRKGAVELIVLGLLSSRPSYGGQLVERFREEAGLEISTGTLYPLLARLRKSGLVVTAWEESPVGPPRKIYKLAKPGKNRLLQMRREWEALDCAVKRTTQKGIR | not soluble |
| MFQAINASGSGLTTARKWMQVTSNNIVNANTPAAPGADLYERRSVVLESNNSFASMLDGAPTNGVKIKSIEADKTENLVYDPTHPHANEEGYVRYPNIDVTAEMTNVMVAQKMYEANTSVLNANKKMLDKDLEIGRG | not soluble |
| MKICLIDETGAGDGALSVLAARWGLEHDEDNLMALVLTPEHLELRKRDEPKLGGIFVDFVGGAMAHRRKFGGGRGEAVAKAVGIKGDYLPDVVDATAGLGRDAFVLASVGCRVRMLERNPVVAALLDDGLARGYADAEIGGWLQERLQLIHASSLTALTDITPRPQVVYLDPMFPHKQKSALVKKEMRVFQSLVGPDLDADGLLEPARLLATKRVVVKRPDYAPPLANVATPNAVVTKGHRFDIYAGTPV | not soluble |
| MISVFDIFKIGIGPSSSHTVGPMKAGKQFTDDLIARHILTDVTRVVVDVYGSLSLTGKGHHTDIAIIMGLAGNLPDTVDIDAIPSFIQDVNTHGRLLLANGQHEVEFPVDKCMNFHADNLSLHENGMRITALAGDKVLYSQTYYSIGGGFIVDEEHFGLTNSEPVNVPYPYKTAADLQRHCQETGLSLSGLMMQNELALHSKEALEQHFARVWEVMRSGIERGITTEGVLPGKLRVPRRAAALRRMLVSQDKTTTDPMAVVDWINMFALAVNEENAAGGRVVTAPTNGACGIVPAVLAYYDKFIREVNANSLARYMLVASAIGSLYKMNASISGAEVGCQGEVGVACSMAAAGLAELLGGSPAQVCIAAEIAMEHNLGLTCDPVAGQVQVPCIERNAIASVKAVNAARMAVRRTSEPRVCLDKVIETMYETGKDMNAKYRETSRGGLAMKIVTCD | not soluble |
| MGSDKIHHHHHHMSCSTAVKENTTQPDIMETNKKNLGNLLALYPKPMTVVGAEVEGKVNWLVVGHTGVIGHDRILVSMSKSHYTNQGIKKSKRLSVNLVSREMLPKADYVGSVSGATVDKSEVFAYHIGENDTPVIDASPLTMECEVVDIYETDGFDNFICAIVNTYAASDVLDSDGKLDYTKLKPVLFEFPTYSYLATGEIIGKCLNPDKPGMCVKEPMTTDGIVRLSKIEVYPQYLDEYMNYATEVGEISLRTEPGVLTMYAVGEKENPCKVTILETYASREAYEQHIASEHFQKYKQGTLHMVKSLVLSDQTPLNPANKLNNFMQ | not soluble |
| MLFDMDGVLFDSMPYHAEAWHKTMKAHGLNLSREEAYMHEGRTGAGTINIVCQRQLGRDATQEEIESIYLEKSIEFNKHPQAERMPGAWELLQKIKAEGIIPTVVTGSGQASLLDRLEHNFPGMFRQELMVTAFDVKYGKPNPEPYLMALEKGGLKPNEAIVIENAPLGVEAGHKAGIFTIAVNTGPLNGEILLNAGADLLFPSMQALCESWEKLVRLLH | not soluble |
| MAHHHHHHMLCGSRATFARTAVAFFNMKHFQTKKKYNLTPQNIYETFSTVLLPRDRLLRQSVSGGGGSRVLVLDAQQRVKGVYLPVFCMPHPSTVTNGSNSLGVAVADYTRSIEATLAMHKAGGGGGTAPTLPTVLVVLSHPQGLAYGTFRADGTPGVPMKNLALAPILANARTQQASTNIASTPLRTSGLGTVMPLLNVSHRHAEVVRDIYTELNECEHVAELAACSTFVWVQRDNMSSMTFEKAQSSERYWERAKNDGDSAAAPPPGAISFLDRRWVLLMDVALHPDTGLGLYARDPATGDRIVNATGVQSALCRGLLLLDHVPRTVANTARAANRETGVSG | soluble |
| MSTLQRRRVNRADSGDTSSIHSSANNTKGDKIANIAVDGDDDNGTNKKIAYDPEESKLRDNINIPTLTLMEEVLLMGLRDREGYLSFWNDSISYALRGCIIIELALRGKIRILDDSARKRFDLSERLIEVIDSSKTGEVLLDETLQLMKNDEPLSISNWIDLLSGETWNLLKINYQLKQVRERLAKGLVDKGVLRTEMKNFFLFDMATHPIADASCKEAIKRRVLSVLVSRNMELSYNEYFPETTSFKIIRTLALICGSYGANVLENVLTTLEYEKRDKAISRAEEIMAQFSQYPFDLEKETELGVSVNLNKEVKEEIENNPGHDLQLEVIAGVFEVFSRMDMLL | soluble |
